# From patent US7317096 (LEADD B V, dated 2008)
# B1: MBP-AAP-1 fusion protein (pMAL-AAP-1) (other, not shown: large carriers)
# chain: MTMGDKKSPTRPKRQAKPAADEGFWDCSVCTFRNSAEAFKCSICDVRKGTSTRKPRINSQLVAQQVAQQYATPPPPKKEKKEKVEKQDKEKPEKDKEISPSVTKKNTNKKTKPKSDILKDPPSEANSIQSANATTKTSETNHTSRPRLKNVDRSTAQQLAVTVGNVTVIITDFKEKTRSSSTSSSTVTSSAGSEQQNQSSSGSESTDKGSSRSSTPKGDMSAVNDESF
# notes: Produced in E. coli, 90 to 95% pure; Printed as 'a Homotrimer or Homo-tetramer'; also called MBP-AAPI
# Target: the molecule itself
# Test: size exclusion chromatography (Superose 6 HR 10/30)
protein,measurement,value
B1,binding result,binds
